Results from patent publication US20090297504A1 (published 2009).
Where no end group is shown, it is not given here.

B1: BCMA ECD from baculovirus expression (human BCMA residues 4-53, His-tagged) (receptor, not shown: small tags and cut ends)
chain: MAGQCSQNEYFDSLLHACIPCQLRCSSNTPPLTCQRYCNASVTNSVKGTN
modifications: not fully specified (N-terminus); ends and bridges not checked; also: mixture of glycosylated and non-glycosylated species
notes: also called BCMA(baculovirus); baculovirus BCMA

How the values were obtained:
[1] = molecular target: T1, Human BAFF (residues 82-285) (human, UniProt Q9Y275 82-285); assay: SPR (BIAcore 3000), BAFF immobilized, receptor as analyte
T1 construct: also called BAFF82-285
Protocol: Measurement of binding constants for receptors to ligands. […] CM5 chips from BIAcore were docked according to manufacturer instructions. Then, BIAcore system was primed with 0.2 μm filtered buffer containing 10 mM Hepes pH 7.2, 150 mM NaCl, 0.005% Tween20. After buffer priming, the flow cells were normalized with 70% glycerol. Each flow cell surface was activated individually in preparation for linkage of the ligand to the chip with a 1:1 mixture of EDC(N-ethyl-N′-(3-dimethyl aminopropyl)-carbodiimide hydrochloride) and NHS(N-hydroxysuccinimide). […] Generally, the ligand to be immobilized (30 μg/ml in 10 mM NaOAc, pH 5 buffer) was injected into the system at 40 μl/min. Once approximately 400 RU was generated, the flow cell was blocked with ethanolamine. […] The system was then primed again.
The ligand-receptor complex was allowed to dissociate by washing the flow cell at 30 μl/min for 600 seconds. Alternatively, if several binding measurements over the same flow cell were to be performed, the ligand-receptor complex was allowed to dissociate by washing the flow cell at 30 μl/min for 900 seconds. Sensorgrams were recorded for each binding assay. A 1:1 Langmuir binding equation was used to simultaneously fit the association and dissociation rates of the ligand-analyte interactions. kₐ, kd, KD were calculated using curve fit analysis software provided with the BiaCore instrument

[2] = molecular target: Murine APRIL (K104-L241) thioredoxin fusion protein (murine) (UniProt Q9D777); assay: SPR (BIAcore 3000), APRIL immobilized, receptor as analyte, 1:1 model
[3] = molecular target: T1, Human BAFF (residues 82-285); assay: competition ELISA; immobilized BAFF, biotinylated miniBR3 tracer (FIG. 7)
Protocol: The plate was washed with PBS and blocked for 1 hr with 200 μl of 0.2% BSA in PBS at room temperature. […] The plate was washed with PBS/Tween-20 and incubated with 100 μl/well of 0.1 U/ml Streptavidin-POD (Boehringer Mannheim) for 15 minutes at room temperature. After washing the plate with PBS/0.05% Tween-20 followed by a final wash in PBS, the plate was incubated for 5 min with 100 μl/well PBS substrate solution containing 0.8 mg/ml OPD (Sigma) and 0.01% H₂O₂.

T1 sequence (Q9Y275 82-285): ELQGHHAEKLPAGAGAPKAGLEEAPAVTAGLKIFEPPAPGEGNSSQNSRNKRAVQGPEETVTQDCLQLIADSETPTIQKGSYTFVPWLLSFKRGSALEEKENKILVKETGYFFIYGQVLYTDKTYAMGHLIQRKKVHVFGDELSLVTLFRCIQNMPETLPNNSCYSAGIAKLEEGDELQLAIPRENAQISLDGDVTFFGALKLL
Sequence of Murine APRIL (K104-L241) thioredoxin fusion protein (murine) (Q9D777 104-241, form in doubt): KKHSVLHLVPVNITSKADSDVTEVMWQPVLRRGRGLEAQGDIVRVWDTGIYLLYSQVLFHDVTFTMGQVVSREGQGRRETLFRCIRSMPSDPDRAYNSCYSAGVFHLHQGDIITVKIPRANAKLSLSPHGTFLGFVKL

Binder | binding result [1] | koff [2] [s⁻¹] | IC50 [3] [nM]
B1 | no binding (tested: analyte 6.25 nM to 200 nM) | – | –
AGQCSQNEYFDSLLHACIPCQLRCSSNTPPLTCQRYCNASVTNSVKG (Fc fusion, not shown: a dimerising Fc or GST, also called wt BCMA-Fc; BCMA-Fc wt) [BCMA-Fc (BCMA(wt)-Fc immunoadhesin)] | – | 0.0001 | 7 to 10
